# B1: STLM107 (antibody, from another filing, V domains shown)
# VH: EVQLLESGGGLVQPGGSLRLSCAASGFTFSDYAMFWVRQAPGKGLEWVSAIEGEGGETNYADSVKGRFTISRDNSKNTLYLQMNSLRAEDTAVYYCARDPWSTEGSFFVLDYWGQGTLVTVSS
# VL: EIVLTQSPATLSLSPGERATLSCRASQSVDDDLAWYQQKPGQAPRLLIYDASNRATGIPARFSGSGSGTDFTLTISSLEPEDFAVYYCQQYIGAPITFGQGTKVEIK
# Molecular target: cyno ST2L (cyno)
# Experiment: affinity table, cyno ST2L; method not stated
binder,measurement,value
B1,koff,0.00065 s⁻¹
